Reference: patent US20260028412A1 (PRECISION BIOSCIENCES, published 2026)
Where a chain is given by its changes, count along the chain named. One block for each molecule: values may come before it.

Assays:
[1] = target: human BCMA expressed on the cell surface (human) (UniProt Q02223); assay: flow cytometry on K562-BCMA cells, goat anti-human IgG secondary
[2] = target: His-tagged BCMA protein (Homo sapiens (Human)) (UniProt Q02223); assay: biolayer interferometry (Octet RED96), His-tagged BCMA loaded on Anti-Penta-HIS (HIS1K) sensors, antibody as analyte at 138.9 nM
[3] = target: human BCMA expressed on the cell surface (human) (UniProt Q02223); assay: flow cytometry on K562-BCMA cells, secondary antibody only
[4] = target: His-tagged BCMA protein (Homo sapiens (Human)) (UniProt Q02223); assay: Octet RED96, His-tagged BCMA on anti-His biosensor tips, antibody as analyte
His-tagged BCMA protein [5] = target: T1, His-tagged BCMA protein (Homo sapiens (Human), UniProt Q02223 1-54); assay: as above
T1 construct: not shown: His tag
T1 sequence: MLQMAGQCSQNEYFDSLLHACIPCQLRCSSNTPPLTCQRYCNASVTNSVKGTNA
Protocol: (§1) Four full length antibodies were analyzed using the OctetRED96 technology for assessment of binding affinity by measurement of the equilibrium dissociation constant (KD). Within the group of four were the two candidate anti-BCMA antibodies (BCMA-3L/3H and BCMA-3L/20H), the positive anti-BCMA control described in Example 1, and the anti-CD19 negative control described in Example 1. In the experiment, His-tagged BCMA protein was loaded onto anti-His antibody coated biosensor tips and supplied antibodies were utilized as analytes to measure KD.

His-tagged BCMA protein [6] = target: T1, His-tagged BCMA protein; assay: biolayer interferometry (Octet RED96), His-tagged BCMA loaded on Anti-Penta-HIS (HIS1K) sensors, antibody as analyte at 138.9 nM
Protocol: as §1

Molecule: positive control IgG4 anti-BCMA antibody (comprising the VH and VL regions of the C11D5.3 antibody described in WO 2010/104949)
% positive cells [1]: 10.1%
Kd [4]: < 0.001 nM
Response [2]: 2.31
koff [2]: < 1e-07 s⁻¹
kon [2]: 236000 M⁻¹ s⁻¹

B1: BCMA-3L/3H full-length IgG4 antibody (antibody, V domains shown)
VH: QIQLVQSGPELKKPGETVKISCKASGYTFTHYSINWVKRAPGKGLKWMGWINTESGEPTYAYDFKGRFAFSLETSASTAYLQINNLKYEDTATYFCALDYESAMDYWGQGTSVTVSS
VL: DIVLTQSPPSLAMSLGKRATISCRASESVTIPGQHLINWYQQKPGQPPKLLIQRASNVESGVPARFSGSGSRTDFTLTIDPVEEDDVAVYYCLQTRGIPRTFGGGTKLEIKR
notes: also called BCMA-3L/3H full length antibody
Kd (His-tagged BCMA protein [5]): 1.38 nM
koff (His-tagged BCMA protein [6]): 0.000333 s⁻¹
kon (His-tagged BCMA protein [6]): 242000 M⁻¹ s⁻¹

Continued, values first:

% positive cells [1]: 1.2%
Response [2]: 0.0032
Molecule: full-length human IgG4 antibody expressing the anti-CD19 targeting moiety FMC63

% positive cells [3]: 0.18%
Molecule: goat anti-human IgG secondary antibody

Kd (His-tagged BCMA protein [5]): 2.14 nM
koff (His-tagged BCMA protein [6]): 0.000458 s⁻¹
kon (His-tagged BCMA protein [6]): 214000 M⁻¹ s⁻¹
B2: BCMA-3L/20H full-length IgG4 antibody (antibody, V domains shown)
VH: B1 VH with S55T, G56R, P58S, E101K, S102Q
VL: B1 VL
notes: also called BCMA-3L/20H full length antibody; BCMA-3L/20H antibody clone
